Assay results taken from patent US20250304644A1, “PEPTIDES TRIPLE AGONISTS OF GIP, GLP-1 AND GLP-2” (BAINAN BIOTECH APS, priority 2021, published 2025).
Changes are numbered by the printed parent chain. Where no end group is shown, it is not given here. [ ]: non-standard residue; d: D form. The star is where a group is joined. Decanoyl = CCCCCCCCCC(=O)*; Aib = CC(C)(N)C(=O)O

T1: human GLP-2R (glucagon-like peptide-2 receptor) (human, UniProt O95838 1-553)
T1 sequence (looked up): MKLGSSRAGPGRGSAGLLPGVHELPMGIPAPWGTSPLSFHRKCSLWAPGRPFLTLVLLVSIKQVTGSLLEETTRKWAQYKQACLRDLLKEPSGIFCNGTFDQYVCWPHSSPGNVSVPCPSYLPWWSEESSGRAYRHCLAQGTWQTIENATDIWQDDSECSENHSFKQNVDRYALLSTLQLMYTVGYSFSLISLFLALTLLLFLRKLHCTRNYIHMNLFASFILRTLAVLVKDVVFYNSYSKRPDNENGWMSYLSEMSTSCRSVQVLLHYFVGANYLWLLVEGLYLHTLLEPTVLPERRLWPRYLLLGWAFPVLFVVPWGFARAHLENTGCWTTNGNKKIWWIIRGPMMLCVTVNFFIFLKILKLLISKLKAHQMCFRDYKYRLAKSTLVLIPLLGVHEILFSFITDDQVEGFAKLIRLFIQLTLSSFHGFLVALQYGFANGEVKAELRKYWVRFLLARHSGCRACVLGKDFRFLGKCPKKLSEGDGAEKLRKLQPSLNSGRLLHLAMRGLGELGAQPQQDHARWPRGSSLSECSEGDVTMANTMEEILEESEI

T2: human GIPR (glucose-dependent insulinotropic polypeptide receptor) (human, UniProt P48546 22-466)
T2 sequence (looked up): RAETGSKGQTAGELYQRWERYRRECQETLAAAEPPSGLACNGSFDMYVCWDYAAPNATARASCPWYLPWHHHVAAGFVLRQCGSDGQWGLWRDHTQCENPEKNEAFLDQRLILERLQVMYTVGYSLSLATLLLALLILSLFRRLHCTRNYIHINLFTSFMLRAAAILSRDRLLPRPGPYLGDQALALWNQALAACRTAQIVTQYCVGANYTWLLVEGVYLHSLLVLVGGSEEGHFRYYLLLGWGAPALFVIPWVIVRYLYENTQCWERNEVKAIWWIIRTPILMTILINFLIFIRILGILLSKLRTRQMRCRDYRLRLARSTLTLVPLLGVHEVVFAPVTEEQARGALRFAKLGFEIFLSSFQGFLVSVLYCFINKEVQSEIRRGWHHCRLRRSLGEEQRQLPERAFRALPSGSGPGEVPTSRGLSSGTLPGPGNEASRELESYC

B1: Compound 16 (peptide)
peptide: Y[Aib]DGTFISDYSTILDNLAARDFINWLIQTKITK(Decanoyl)-NH2
modifications: N-terminus assumed
SMILES: CCCCCCCCCC(=O)NCCCC[C@H](NC(=O)[C@@H](NC(=O)[C@@H](NC(=O)[C@H](CCCCN)NC(=O)[C@@H](NC(=O)[C@H](CCC(N)=O)NC(=O)[C@@H](NC(=O)[C@H](CC(C)C)NC(=O)[C@H](Cc1c[nH]c2ccccc12)NC(=O)[C@H](CC(N)=O)NC(=O)[C@@H](NC(=O)[C@H](Cc1ccccc1)NC(=O)[C@H](CC(=O)O)NC(=O)[C@H](CCCNC(=N)N)NC(=O)[C@H](C)NC(=O)[C@H](C)NC(=O)[C@H](CC(C)C)NC(=O)[C@H](CC(N)=O)NC(=O)[C@H](CC(=O)O)NC(=O)[C@H](CC(C)C)NC(=O)[C@@H](NC(=O)[C@@H](NC(=O)[C@H](CO)NC(=O)[C@H](Cc1ccc(O)cc1)NC(=O)[C@H](CC(=O)O)NC(=O)[C@H](CO)NC(=O)[C@@H](NC(=O)[C@H](Cc1ccccc1)NC(=O)[C@@H](NC(=O)CNC(=O)[C@H](CC(=O)O)NC(=O)C(C)(C)NC(=O)[C@@H](N)Cc1ccc(O)cc1)[C@@H](C)O)[C@@H](C)CC)[C@@H](C)O)[C@@H](C)CC)[C@@H](C)CC)[C@@H](C)CC)[C@@H](C)O)[C@@H](C)CC)[C@@H](C)O)C(N)=O
B2: Compound 5 (peptide)
peptide: H[Aib]DGTFISDYSTILDALAARDFINWLIQTKITK(Decanoyl)-NH2
modifications: N-terminus assumed
SMILES: CCCCCCCCCC(=O)NCCCC[C@H](NC(=O)[C@@H](NC(=O)[C@@H](NC(=O)[C@H](CCCCN)NC(=O)[C@@H](NC(=O)[C@H](CCC(N)=O)NC(=O)[C@@H](NC(=O)[C@H](CC(C)C)NC(=O)[C@H](Cc1c[nH]c2ccccc12)NC(=O)[C@H](CC(N)=O)NC(=O)[C@@H](NC(=O)[C@H](Cc1ccccc1)NC(=O)[C@H](CC(=O)O)NC(=O)[C@H](CCCNC(=N)N)NC(=O)[C@H](C)NC(=O)[C@H](C)NC(=O)[C@H](CC(C)C)NC(=O)[C@H](C)NC(=O)[C@H](CC(=O)O)NC(=O)[C@H](CC(C)C)NC(=O)[C@@H](NC(=O)[C@@H](NC(=O)[C@H](CO)NC(=O)[C@H](Cc1ccc(O)cc1)NC(=O)[C@H](CC(=O)O)NC(=O)[C@H](CO)NC(=O)[C@@H](NC(=O)[C@H](Cc1ccccc1)NC(=O)[C@@H](NC(=O)CNC(=O)[C@H](CC(=O)O)NC(=O)C(C)(C)NC(=O)[C@@H](N)Cc1c[nH]cn1)[C@@H](C)O)[C@@H](C)CC)[C@@H](C)O)[C@@H](C)CC)[C@@H](C)CC)[C@@H](C)CC)[C@@H](C)O)[C@@H](C)CC)[C@@H](C)O)C(N)=O
B3: Compound 3 (peptide)
peptide: H[Aib]DGTFISDYATILDNLAARDFINWLIQTKITK(Decanoyl)-OH
modifications: N-terminus assumed
SMILES: CCCCCCCCCC(=O)NCCCC[C@H](NC(=O)[C@@H](NC(=O)[C@@H](NC(=O)[C@H](CCCCN)NC(=O)[C@@H](NC(=O)[C@H](CCC(N)=O)NC(=O)[C@@H](NC(=O)[C@H](CC(C)C)NC(=O)[C@H](Cc1c[nH]c2ccccc12)NC(=O)[C@H](CC(N)=O)NC(=O)[C@@H](NC(=O)[C@H](Cc1ccccc1)NC(=O)[C@H](CC(=O)O)NC(=O)[C@H](CCCNC(=N)N)NC(=O)[C@H](C)NC(=O)[C@H](C)NC(=O)[C@H](CC(C)C)NC(=O)[C@H](CC(N)=O)NC(=O)[C@H](CC(=O)O)NC(=O)[C@H](CC(C)C)NC(=O)[C@@H](NC(=O)[C@@H](NC(=O)[C@H](C)NC(=O)[C@H](Cc1ccc(O)cc1)NC(=O)[C@H](CC(=O)O)NC(=O)[C@H](CO)NC(=O)[C@@H](NC(=O)[C@H](Cc1ccccc1)NC(=O)[C@@H](NC(=O)CNC(=O)[C@H](CC(=O)O)NC(=O)C(C)(C)NC(=O)[C@@H](N)Cc1c[nH]cn1)[C@@H](C)O)[C@@H](C)CC)[C@@H](C)O)[C@@H](C)CC)[C@@H](C)CC)[C@@H](C)CC)[C@@H](C)O)[C@@H](C)CC)[C@@H](C)O)C(=O)O
B4: Compound 12 (peptide)
peptide: HXDGTFISDYSTXLDNLAARDFINWLIQTKITK
modifications: Aib at positions 2 and 13; K33 acylated with C10, K(C10); C-terminal amide (-NH2)
B5: Compound 17 (peptide)
peptide: B4 peptide with X13I
modifications: Aib at position 2; K33 acylated with C10 via γGlu linker, K(γGlu-C10); C-terminal amide (-NH2)
B6: Compound 13 (peptide)
peptide: H[Aib]DGTFISDYSTELDNLAARDFINWLIQTKITK(Decanoyl)-NH2
modifications: N-terminus assumed
SMILES: CCCCCCCCCC(=O)NCCCC[C@H](NC(=O)[C@@H](NC(=O)[C@@H](NC(=O)[C@H](CCCCN)NC(=O)[C@@H](NC(=O)[C@H](CCC(N)=O)NC(=O)[C@@H](NC(=O)[C@H](CC(C)C)NC(=O)[C@H](Cc1c[nH]c2ccccc12)NC(=O)[C@H](CC(N)=O)NC(=O)[C@@H](NC(=O)[C@H](Cc1ccccc1)NC(=O)[C@H](CC(=O)O)NC(=O)[C@H](CCCNC(=N)N)NC(=O)[C@H](C)NC(=O)[C@H](C)NC(=O)[C@H](CC(C)C)NC(=O)[C@H](CC(N)=O)NC(=O)[C@H](CC(=O)O)NC(=O)[C@H](CC(C)C)NC(=O)[C@H](CCC(=O)O)NC(=O)[C@@H](NC(=O)[C@H](CO)NC(=O)[C@H](Cc1ccc(O)cc1)NC(=O)[C@H](CC(=O)O)NC(=O)[C@H](CO)NC(=O)[C@@H](NC(=O)[C@H](Cc1ccccc1)NC(=O)[C@@H](NC(=O)CNC(=O)[C@H](CC(=O)O)NC(=O)C(C)(C)NC(=O)[C@@H](N)Cc1c[nH]cn1)[C@@H](C)O)[C@@H](C)CC)[C@@H](C)O)[C@@H](C)CC)[C@@H](C)CC)[C@@H](C)O)[C@@H](C)CC)[C@@H](C)O)C(N)=O

target: T1, human GLP-2R (glucagon-like peptide-2 …); assay: cell-based or functional assay

In order of rising “EC50 (nM) GLP-2R” value:
1. B3  2.8 nM
2. B1  8.9 nM
3. B6  25.1 nM
4. H[Aib]EGTFISDYSTILDNLAARDFINWLIQTKITK(Decanoyl)-NH2 [Compound 11]  25.1 nM

In order of rising “Efficacy GLP-2R” value:
1. H[Aib]EGTFISDYSTILDNLAARDFINWLIQTKITK(Decanoyl)-NH2 [Compound 11]  68
2. B4  77
3. B6  86
4. B5  92
5. B1  93
6. B3  101
7. H[Aib]DGTFISDYSIILDNLAARDFINWLIQTKITK(Decanoyl)-NH2 [Compound 10]  103
8. HXDGTFISDYSTILDNLAARDFIEWLIQTKITK (Aib at position 2; K33 acylated with C10, K(C10); C-terminal amide (-NH2)) [Compound 9]  108
9. B2  110

In order of falling “logEC50 GLP-2R” value:
1. B2  8.7
2. B3  8.6
3. B1  8.1
4. H[Aib]DGTFISDYSIILDNLAARDFINWLIQTKITK(Decanoyl)-NH2 [Compound 10]  8
5. HXDGTFISDYSTILDNLAARDFIEWLIQTKITK (Aib at position 2; K33 acylated with C10, K(C10); C-terminal amide (-NH2)) [Compound 9]  8
6. B6  7.6
7. H[Aib]EGTFISDYSTILDNLAARDFINWLIQTKITK(Decanoyl)-NH2 [Compound 11]  7.6

target: T2, human GIPR (glucose-dependent …); assay: cell-based or functional assay

In order of falling “EC50 (nM) GIPR” value:
1. H[Aib]EGTFISDYSTILDNLAARDFINWLIQTKITK(Decanoyl)-NH2 [Compound 11]  13.6 nM
2. B6  7.94 nM
3. B1  1 nM
4. HXDGTFISDYSTILDNLAARDFIEWLIQTKITK (Aib at position 2; K33 acylated with C10, K(C10); C-terminal amide (-NH2)) [Compound 9]  0.708 nM
5. H[Aib]DGTFISDYSIILDNLAARDFINWLIQTKITK(Decanoyl)-NH2 [Compound 10]  0.501 nM
6. B2  0.158 nM

In order of rising “Efficacy GIPR” value:
1. B3  80
2. H[Aib]EGTFISDYSTILDNLAARDFINWLIQTKITK(Decanoyl)-NH2 [Compound 11]  89
3. B5  97
4. B1  99
5. HXDGTFISDYSTILDNLAARDFIEWLIQTKITK (Aib at position 2; K33 acylated with C10, K(C10); C-terminal amide (-NH2)) [Compound 9]  104
6. B4  107
7. B2  111
8. B6  117
9. H[Aib]DGTFISDYSIILDNLAARDFINWLIQTKITK(Decanoyl)-NH2 [Compound 10]  127

In order of falling “pEC50 GIPR” value:
1. B2  9.8
2. H[Aib]DGTFISDYSIILDNLAARDFINWLIQTKITK(Decanoyl)-NH2 [Compound 10]  9.3
3. B3  9.2
4. HXDGTFISDYSTILDNLAARDFIEWLIQTKITK (Aib at position 2; K33 acylated with C10, K(C10); C-terminal amide (-NH2)) [Compound 9]  9.2
5. B1  9
6. B6  8.1
7. H[Aib]EGTFISDYSTILDNLAARDFINWLIQTKITK(Decanoyl)-NH2 [Compound 11]  7.9

target: human GLP-1R (glucagon-like peptide-1 receptor) (human, UniProt P43220 24-463); assay: cell-based or functional assay

In order of rising “EC50 (nM) GLP-1R” value:
1. B2  1.78 nM
2. B3  1.78 nM
3. H[Aib]DGTFISDYSIILDNLAARDFINWLIQTKITK(Decanoyl)-NH2 [Compound 10]  3.98 nM
4. HXDGTFISDYSTILDNLAARDFIEWLIQTKITK (Aib at position 2; K33 acylated with C10, K(C10); C-terminal amide (-NH2)) [Compound 9]  5.62 nM
5. B6  25.1 nM
6. H[Aib]EGTFISDYSTILDNLAARDFINWLIQTKITK(Decanoyl)-NH2 [Compound 11]  39.8 nM
7. B1  56.2 nM

In order of rising “Efficacy GLP-1R” value:
1. B1  59
2. B4  76
3. H[Aib]EGTFISDYSTILDNLAARDFINWLIQTKITK(Decanoyl)-NH2 [Compound 11]  76
4. B6  85
5. B3  94
6. H[Aib]DGTFISDYSIILDNLAARDFINWLIQTKITK(Decanoyl)-NH2 [Compound 10]  99
7. B2  105
8. HXDGTFISDYSTILDNLAARDFIEWLIQTKITK (Aib at position 2; K33 acylated with C10, K(C10); C-terminal amide (-NH2)) [Compound 9]  105
9. B5  107

In order of rising “logEC50 GLP-1R” value:
1. B1  7.3
2. H[Aib]EGTFISDYSTILDNLAARDFINWLIQTKITK(Decanoyl)-NH2 [Compound 11]  7.4
3. B6  7.6
4. HXDGTFISDYSTILDNLAARDFIEWLIQTKITK (Aib at position 2; K33 acylated with C10, K(C10); C-terminal amide (-NH2)) [Compound 9]  8.3
5. H[Aib]DGTFISDYSIILDNLAARDFINWLIQTKITK(Decanoyl)-NH2 [Compound 10]  8.4
6. B2  8.8
7. B3  8.8
